Measured values published in the supplement of paper PMC11316812.
± gives the standard deviation of the averaged measurements.

Assays:
MCF7 = test: percentage of EdU-negative (G0-arrested) nuclei per well, 72 h; higher = more G0 arrest; details: reference: sequence is the full UniProt precursor, the tested protein was the secreted form or ectodomain
hTERT-HMEC = test: as above; details: reference: sequence is the full UniProt precursor, the tested protein was the secreted form or ectodomain
[1] = protein concentration 0.0225 µM
[2] = protein concentration 0.03125 µM
[3] = protein concentration 0.3125 µM
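Further: secreted proteins added to cultured cells, EdU pulse at the end, nuclei found by Hoechst imaging, EdU status from nuclear versus surrounding ring intensity ratio, PBS as neutral control.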

Sequence	percentage of EdU-negative (MCF7; [1]) [%]	percentage of EdU-negative (MCF7; protein concentration 0.225 µM) [%]	percentage of EdU-negative (hTERT-HMEC; [1]) [%]	percentage of EdU-negative (hTERT-HMEC; protein concentration 0.225 µM) [%]	percentage of EdU-negative (MCF7; [2]) [%]	percentage of EdU-negative (MCF7; [3]) [%]	percentage of EdU-negative (hTERT-HMEC; [2]) [%]	percentage of EdU-negative (hTERT-HMEC; [3]) [%]
MTLLLLPLLLASLLASCSCNKANKHKPWIEAEYQGIVMENDNTVLLNPPLFALDKDAPLRYAGEICGFRLHGSGVPFEAVILDKATGEGLIRAKEPVDCEAQKEHTFTIQAYDCGEGPDGANTKKSHKATVHVRVNDVNEFAPVFVERLYRAAVTEGKLYDRILRVEAIDGDCSPQYSQICYYEILTPNTPFLIDNDGNIENTEKLQYSGERLYKFTVTAYDCGKKRAADDAEVEIQVKPTCKPSWQGWNKRIEYAPGAGSLALFPGIRLETCDEPLWNIQATIELQTSHVAKGCDRDNYSERALRKLCGAATGEVDLLPMPGPNANWTAGLSVHYSQDSSLIYWFNGTQAVQVPLGGPSGLGSGPQDSLSDHFTLSFWMKHGVTPNKGKKEEETIVCNTVQNEDGFSHYSLTVHGCRIAFLYWPLLESARPVKFLWKLEQVCDDEWHHYALNLEFPTVTLYTDGISFDPALIHDNGLIHPPRREPALMIGACWTEEKNKEKEKGDNSTDTTQGDPLSIHHYFHGYLAGFSVRSGRLESREVIECLYACREGLDYRDFESLGKGMKVHVNPSQSLLTLEGDDVETFNHALQHVAYMNTLRFATPGVRPLRLTTAVKCFSEESCVSIPEVEGYVVVLQPDAPQILLSGTAHFARPAVDFEGTNGVPLFPDLQITCSISHQVEAKKDESWQGTVTDTRMSDEIVHNLDGCEISLVGDDLDPERESLLLDTTSLQQRGLELTNTSAYLTIAGVESITVYEEILRQARYRLRHGAALYTRKFRLSCSEMNGRYSSNEFIVEVNVLHSMNRVAHPSHVLSSQQFLHRGHQPPPEMAGHSLASSHRNSMIPSAATLIIVVCVGFLVLMVVLGLVRIHSLHRRVSGAGGPPGASSDPKDPDLFWDDSALTIIVNPMESYQNRQSCVTGAVGGQQEDEDSSDSEVADSPSSDERRIIETPPHRY [Q9BQT9]	25.2 ± 1.4	26.1 ± 0.34	4.44 ± 0.21	5.534 ± 0.019	–	–	–	–
MLLLPFQLLAVLFPGGNSEHAFQGPTSFHVIQTSSFTNSTWAQTQGSGWLDDLQIHGWDSDSGTAIFLKPWSKGNFSDKEVAELEEIFRVYIFGFAREVQDFAGDFQMKYPFEIQGIAGCELHSGGAIVSFLRGALGGLDFLSVKNASCVPSPEGGSRAQKFCALIIQYQGIMETVRILLYETCPRYLLGVLNAGKADLQRQVKPEAWLSSGPSPGPGRLQLVCHVSGFYPKPVWVMWMRGEQEQQGTQLGDILPNANWTWYLRATLDVADGEAAGLSCRVKHSSLEGQDIILYWRNPTSIGSIVLAIIVPSLLLLLCLALWYMRRRSYQNIP	25.9 ± 0.97	24.2 ± 1.6	5.01 ± 0.84	6.06 ± 0.84	–	–	–	–
MLALLCSCLLLAAGASDAWTGEDSAEPNSDSAEWIRDMYAKVTEIWQEVMQRRDDDGALHAACQVQPSATLDAAQPRVTGVVLFRQLAPRAKLDAFFALEGFPTEPNSSSRAIHVHQFGDLSQGCESTGPHYNPLAVPHPQHPGDFGNFAVRDGSLWRYRAGLAASLAGPHSIVGRAVVVHAGEDDLGRGGNQASVENGNAGRRLACCVVGVCGPGLWERQAREHSERKKRRRESECKAA	23.8 ± 1	27 ± 0.74	7 ± 3.4	4.98 ± 0.59	–	–	–	–
MFHVSFRYIFGLPPLILVLLPVASSDCDIEGKDGKQYESVLMVSIDQLLDSMKEIGSNCLNNEFNFFKRHICDANKEGMFLFRAARKLRQFLKMNSTGDFDLHLLKVSEGTTILLNCTGQVKGRKPAALGEAQPTKSLEENKSLKEQKKLNDLCFLKRLLQEIKTCWNKILMGTKEH	27.6 ± 3.5	25.3 ± 1.1	5.22 ± 1	6.63 ± 0.069	26 ± 0.34	25.9 ± 0.41	5.03 ± 1.4	4.47 ± 0.49
MASPGCLWLLAVALLPWTCASRALQHLDPPAPLPLVIWHGMGDSCCNPLSMGAIKKMVEKKIPGIYVLSLEIGKTLMEDVENSFFLNVNSQVTTVCQALAKDPKLQQGYNAMGFSQGGQFLRAVAQRCPSPPMINLISVGGQHQGVFGLPRCPGESSHICDFIRKTLNAGAYSKVVQERLVQAEYWHDPIKEDVYRNHSIFLADINQERGINESYKKNLMALKKFVMVKFLNDSIVDPVDSEWFGFYRSGQAKETIPLQETSLYTQDRLGLKEMDNAGQLVFLATEGDHLQLSEEWFYAHIIPFLG	25.6 ± 1.6	26.4 ± 0.39	4.49 ± 0.2	9.52 ± 0.25	–	–	–	–
MRWRTILLQYCFLLITCLLTALEAVPIDIDKTKVQNIHPVESAKIEPPDTGLYYDEYLKQVIDVLETDKHFREKLQKADIEEIKSGRLSKELDLVSHHVRTKLDELKRQEVGRLRMLIKAKLDSLQDIGMDHQALLKQFDHLNHLNPDKFESTDLDMLIKAATSDLEHYDKTRHEEFKKYEMMKEHERREYLKTLNEEKRKEEESKFEEMKKKHENHPKVNHPGSKDQLKEVWEETDGLDPNDFDPKTFFKLHDVNSDGFLDEQELEALFTKELEKVYDPKNEEDDMVEMEEERLRMREHVMNEVDTNKDRLVTLEEFLKATEKKEFLEPDSWETLDQQQFFTEEELKEYENIIALQENELKKKADELQKQKEELQRQHDQLEAQKLEYHQVIQQMEQKKLQQGIPPSGPAGELKFEPHI	24 ± 0.28	26 ± 1.5	5.36 ± 0.7	5.32 ± 1.9	–	–	–	–
